From publication doi:10.1101/2025.11.16.688685

Experiments:
hRNMT 1-185 [1] = target: T1, hRNMT 1-185 (Homo sapiens, UniProt O43148 1-185); test: pull-down
hRNMT 120-476 [2] = target: T2, hRNMT 120-476 (Homo sapiens, UniProt O43148 120-476); test: pull-down
hRNMT WT [3] = target: T3, hRNMT WT (Homo sapiens, UniProt O43148 1-476); test: pull-down
hRNMT 1-185 [4] = target: T1, hRNMT 1-185; test: EMSA
hRNMT WT [5] = target: T3, hRNMT WT; test: EMSA
hRNMT 120-476 [6] = target: T2, hRNMT 120-476; test: EMSA
hRNMT WT;RAM 1-90 = hRNMT WT;RAM 1-90 (Homo sapiens;Homo sapiens?, UniProt O43148;Q9BTL3 1-476;1-90, |); test: EMSA
Chain of hRNMT WT;RAM 1-90 (O43148 whole entry, chain 1 of 2): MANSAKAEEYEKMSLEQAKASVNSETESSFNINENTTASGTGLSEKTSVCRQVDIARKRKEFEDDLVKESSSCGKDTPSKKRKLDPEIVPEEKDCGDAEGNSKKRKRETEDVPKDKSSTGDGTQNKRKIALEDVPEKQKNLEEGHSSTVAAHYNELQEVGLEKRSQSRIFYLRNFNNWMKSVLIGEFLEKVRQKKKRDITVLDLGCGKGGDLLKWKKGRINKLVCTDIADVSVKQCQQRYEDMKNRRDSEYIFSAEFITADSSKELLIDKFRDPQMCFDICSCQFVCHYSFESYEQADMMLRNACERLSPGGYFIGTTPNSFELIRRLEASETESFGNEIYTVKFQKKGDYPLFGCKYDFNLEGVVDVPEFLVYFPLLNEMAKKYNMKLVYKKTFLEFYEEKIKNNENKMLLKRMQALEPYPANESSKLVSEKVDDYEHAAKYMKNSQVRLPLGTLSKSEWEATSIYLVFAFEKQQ
Chain of hRNMT WT;RAM 1-90 (Q9BTL3 1-90, chain 2 of 2): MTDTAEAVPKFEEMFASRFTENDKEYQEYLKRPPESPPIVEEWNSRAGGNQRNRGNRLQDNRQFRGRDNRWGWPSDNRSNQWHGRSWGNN

Measured: binding result

T2 sequence (O43148 120-476): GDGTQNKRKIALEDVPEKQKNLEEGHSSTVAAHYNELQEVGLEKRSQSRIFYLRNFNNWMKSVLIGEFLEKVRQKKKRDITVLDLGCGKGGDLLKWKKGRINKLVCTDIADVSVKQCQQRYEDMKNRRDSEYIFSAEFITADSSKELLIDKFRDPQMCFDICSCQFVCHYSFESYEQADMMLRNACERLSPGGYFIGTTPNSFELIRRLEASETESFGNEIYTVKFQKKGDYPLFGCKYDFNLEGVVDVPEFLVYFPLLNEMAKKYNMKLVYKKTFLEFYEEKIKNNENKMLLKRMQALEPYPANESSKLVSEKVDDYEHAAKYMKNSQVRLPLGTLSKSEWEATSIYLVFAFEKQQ
T3 sequence (O43148 whole entry): as the sequence (O43148 whole entry, chain 1 of 2) above
T1 sequence (O43148 1-185): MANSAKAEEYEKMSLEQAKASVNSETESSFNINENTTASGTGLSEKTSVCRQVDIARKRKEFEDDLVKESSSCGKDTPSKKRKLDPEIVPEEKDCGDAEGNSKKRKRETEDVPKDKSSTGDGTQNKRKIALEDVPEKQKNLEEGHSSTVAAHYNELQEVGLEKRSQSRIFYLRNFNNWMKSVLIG

UGUGGGAGGGGCGGGUGUGGGUGC (structured_RNA) [NRAS rG4]
binds: hRNMT 1-185 [1] | hRNMT 120-476 [2] | hRNMT WT [3]

B1: pGEM rG4 RNA (structured_RNA)
RNA: GGGCGAAUUGGGCCCGACGUCGCAUGUGUGGGAGGGGGCGGGUGUGGGUGCGAA
binds: hRNMT 1-185 [4] | hRNMT WT [5] | hRNMT 120-476 [6] | hRNMT WT;RAM 1-90

B2: pGEM RNA (ssRNA)
RNA: GGGCGAAUUGGGCCCGACGUCGCAUGCUCCCGGCCGCCAUGGCGGCCGCGGGAA
binds: hRNMT 120-476 [6] | hRNMT WT;RAM 1-90
